Read-outs that look alike come from different tables or passages of the source. Numbered stars: 1 amine (or outer) side, 2 acyl side, 3 side chain; on linkers, the order of the positions; unused ones are H or OH. Bridge positions count the residues as written; N and C are the ends. Ends that are not written are not given here. TBMB = c1c(C[*:1])cc(C[*:3])cc1C[*:2]
Key:
[1] = biological target: T1, human plasma Kallikrein (human, UniProt P03952 20-638); assay: enzyme inhibition
T1 construct: also called hPK; human PK
T1 sequence (P03952 20-638 limits assumed): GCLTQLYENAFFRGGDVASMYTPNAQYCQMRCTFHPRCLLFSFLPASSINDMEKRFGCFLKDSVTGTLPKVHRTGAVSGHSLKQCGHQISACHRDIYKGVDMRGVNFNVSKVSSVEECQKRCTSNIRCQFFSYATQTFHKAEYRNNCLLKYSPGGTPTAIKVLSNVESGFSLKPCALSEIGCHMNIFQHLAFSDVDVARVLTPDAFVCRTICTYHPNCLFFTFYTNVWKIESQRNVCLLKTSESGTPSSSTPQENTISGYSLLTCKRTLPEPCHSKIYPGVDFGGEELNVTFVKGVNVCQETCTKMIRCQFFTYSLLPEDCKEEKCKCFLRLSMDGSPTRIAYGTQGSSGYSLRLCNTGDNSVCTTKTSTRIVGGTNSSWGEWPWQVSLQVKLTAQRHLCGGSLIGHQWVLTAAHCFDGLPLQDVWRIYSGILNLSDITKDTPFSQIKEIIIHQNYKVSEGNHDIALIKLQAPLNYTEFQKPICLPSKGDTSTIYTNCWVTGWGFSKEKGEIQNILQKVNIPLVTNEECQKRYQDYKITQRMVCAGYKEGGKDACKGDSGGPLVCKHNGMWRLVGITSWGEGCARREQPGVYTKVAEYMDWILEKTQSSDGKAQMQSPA
Procedure: (§1) Functional enzyme assays were conducted in 10 mM Tris HCl, 150 mM NaCl, 10 mM MgCl2, 1 mM CaCl₂) and 1 mg/mL BSA (all Sigma UK) pH7.4 at 25° C. in solid black 96 well plates. […] Release of AMC was measured using a Pherastar FS (BMG Labtech), excitation 360 nm, emission 460 nm. The rate of the linear phase of the reaction, typically 5 to 45 minutes, was calculated in MARS data analysis software (BMG labtech). The rate was then used to calculate the IC50 and Ki in Prism (GraphPad).
Crucially, such modifications should not affect the potency against human or rat Kallikrein. An initial exploration regarding the role of the WPAR (SEQ ID No. 19) sequence/pharmacophore (FIG. 9, 10) was performed by replacing W₂P₃ with A₂A₃ or A₂Q₃ and by scrambling parts or the entire first loop of the bicycle.

[2] = biological target: T1, human plasma Kallikrein; assay: enzyme inhibition; remark: listed apart in the source
Procedure: as §1

[3] = biological target: T1, human plasma Kallikrein; assay: enzyme inhibition; ref WT
Procedure: as §1

[4] = biological target: T2, rat plasma Kallikrein (rat, UniProt P14272 391-638, limits assumed); assay: enzyme inhibition
T2 construct: domain: catalytic domain; also called rPK; rat PK
T2 sequence (P14272 391-638 limits assumed): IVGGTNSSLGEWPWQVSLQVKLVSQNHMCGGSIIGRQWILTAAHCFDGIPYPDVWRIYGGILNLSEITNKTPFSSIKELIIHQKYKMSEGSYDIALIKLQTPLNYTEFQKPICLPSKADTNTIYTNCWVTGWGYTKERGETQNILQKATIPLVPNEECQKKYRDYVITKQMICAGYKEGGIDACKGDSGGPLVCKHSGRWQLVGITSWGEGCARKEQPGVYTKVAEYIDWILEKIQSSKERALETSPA
Procedure: as §1

Binder | Ki [1] [nM] | IC50 [2] [nM] | IC50 [4] [nM] | other results
Ac-CWASPRCLHQDLC-NH2 (linker 1-7-13 via TBMB; SMILES CC(=O)N[C@H]1CSCc2cc3cc(c2)CSC[C@H](NC(=O)[C@H](CCCNC(=N)N)NC(=O)[C@@H]2CCCN2C(=O)[C@H](CO)NC(=O)[C@H](C)NC(=O)[C@H](Cc2c[nH]c4ccccc24)NC1=O)C(=O)N[C@@H](CC(C)C)C(=O)N[C@@H](Cc1c[nH]cn1)C(=O)N[C@@H](CCC(N)=O)C(=O)N[C@@H](CC(=O)O)C(=O)N[C@@H](CC(C)C)C(=O)N[C@H](C(N)=O)CSC3) [Ac-(06-34-18) Scram2] | 11400 | – | – | –
Ac-CWARSPCLHQDLC-NH2 (linker 1-7-13 via TBMB; SMILES CC(=O)N[C@H]1CSCc2cc3cc(c2)CSC[C@H](NC(=O)[C@@H]2CCCN2C(=O)[C@H](CO)NC(=O)[C@H](CCCNC(=N)N)NC(=O)[C@H](C)NC(=O)[C@H](Cc2c[nH]c4ccccc24)NC1=O)C(=O)N[C@@H](CC(C)C)C(=O)N[C@@H](Cc1c[nH]cn1)C(=O)N[C@@H](CCC(N)=O)C(=O)N[C@@H](CC(=O)O)C(=O)N[C@@H](CC(C)C)C(=O)N[C@H](C(N)=O)CSC3) [Ac-(06-34-18) Scram4] | 67500 | – | – | –
Ac-CAPWSRCLHQDLC-NH2 (linker 1-7-13 via TBMB; SMILES CC(=O)N[C@H]1CSCc2cc3cc(c2)CSC[C@H](NC(=O)[C@H](CCCNC(=N)N)NC(=O)[C@H](CO)NC(=O)[C@H](Cc2c[nH]c4ccccc24)NC(=O)[C@@H]2CCCN2C(=O)[C@H](C)NC1=O)C(=O)N[C@@H](CC(C)C)C(=O)N[C@@H](Cc1c[nH]cn1)C(=O)N[C@@H](CCC(N)=O)C(=O)N[C@@H](CC(=O)O)C(=O)N[C@@H](CC(C)C)C(=O)N[C@H](C(N)=O)CSC3) [Ac-(06-34-18) Scram3] | 1890 | – | – | –
ACGVPYRCTHQEMCA (linker 2-8-14 via TBMB; not fully specified (N-terminus, C-terminus)) [06-64 T] | – | – | – | Ki [2]: 6.9 nM
Ac-CSAAARCLHQDLC-NH2 (linker 1-7-13 via TBMB; SMILES CC(=O)N[C@H]1CSCc2cc3cc(c2)CSC[C@H](NC(=O)[C@H](CCCNC(=N)N)NC(=O)[C@H](C)NC(=O)[C@H](C)NC(=O)[C@H](C)NC(=O)[C@H](CO)NC1=O)C(=O)N[C@@H](CC(C)C)C(=O)N[C@@H](Cc1c[nH]cn1)C(=O)N[C@@H](CCC(N)=O)C(=O)N[C@@H](CC(=O)O)C(=O)N[C@@H](CC(C)C)C(=O)N[C@H](C(N)=O)CSC3) [Ac-(06-34-18) A2A3] | 18500 | – | – | fold reduction in binding vs wildtype [2]: ~100000 fold
Ac-CSAQARCLHQDLC-NH2 (linker 1-7-13 via TBMB; SMILES CC(=O)N[C@H]1CSCc2cc3cc(c2)CSC[C@H](NC(=O)[C@H](CCCNC(=N)N)NC(=O)[C@H](C)NC(=O)[C@H](CCC(N)=O)NC(=O)[C@H](C)NC(=O)[C@H](CO)NC1=O)C(=O)N[C@@H](CC(C)C)C(=O)N[C@@H](Cc1c[nH]cn1)C(=O)N[C@@H](CCC(N)=O)C(=O)N[C@@H](CC(=O)O)C(=O)N[C@@H](CC(C)C)C(=O)N[C@H](C(N)=O)CSC3) [Ac-(06-34-18) A2Q3] | 15800 | – | – | fold reduction in binding vs wildtype [2]: ~100000 fold
Ac-CPSAWRCLHQDLC-NH2 (linker 1-7-13 via TBMB; SMILES CC(=O)N[C@H]1CSCc2cc3cc(c2)CSC[C@H](NC(=O)[C@H](CCCNC(=N)N)NC(=O)[C@H](Cc2c[nH]c4ccccc24)NC(=O)[C@H](C)NC(=O)[C@H](CO)NC(=O)[C@@H]2CCCN2C1=O)C(=O)N[C@@H](CC(C)C)C(=O)N[C@@H](Cc1c[nH]cn1)C(=O)N[C@@H](CCC(N)=O)C(=O)N[C@@H](CC(=O)O)C(=O)N[C@@H](CC(C)C)C(=O)N[C@H](C(N)=O)CSC3) [Ac-(06-34-18) Scram1] | 1090 | – | – | –
Ac-CSFPYRCLTTELC-NH2 (linker 1-7-13 via TBMB; SMILES CC(=O)N[C@H]1CSCc2cc3cc(c2)CSC[C@H](NC(=O)[C@H](CCCNC(=N)N)NC(=O)[C@H](Cc2ccc(O)cc2)NC(=O)[C@@H]2CCCN2C(=O)[C@H](Cc2ccccc2)NC(=O)[C@H](CO)NC1=O)C(=O)N[C@@H](CC(C)C)C(=O)N[C@@H]([C@@H](C)O)C(=O)N[C@@H]([C@@H](C)O)C(=O)N[C@@H](CCC(=O)O)C(=O)N[C@@H](CC(C)C)C(=O)N[C@H](C(N)=O)CSC3, also called loop 2 LTTEL) [Ac-(06-34-18) Phe2 Tyr4 Thr7 Thr8 Glu9] | – | – | – | Ki [2]: 81 nM; F (Kivar/KiWT) [3]: 193 fold
ACSWPYRCLHQDYCA (linker 2-8-14 via TBMB; not fully specified (N-terminus, C-terminus)) [06-61] | – | – | – | Ki [2]: 5.8 nM
ACSWPARCVHQDLCA (linker 2-8-14 via TBMB; not fully specified (N-terminus, C-terminus)) [06-34-01] | – | 0.15 | 6.12 | –
ACRWPARCMHQDLCA (linker 2-8-14 via TBMB; not fully specified (N-terminus, C-terminus)) [06-34-04] | – | 0.075 | 0.56 | –
ACRWPARCLHQDLCA (linker 2-8-14 via TBMB; not fully specified (N-terminus, C-terminus)) [06-34-05] | – | 0.076 | 0.62 | –
ACSWPARCMHQDLCA (linker 2-8-14 via TBMB; not fully specified (N-terminus, C-terminus)) [06-34-17 (01 + 04)] | – | 0.073 | 0.44 | –
ACSWPARCTHQDLCA (linker 2-8-14 via TBMB; not fully specified (N-terminus, C-terminus)) [06-34-03 (01 + 02)] | – | 0.082 | 0.87 | –
ACRWPARCTHQDLCA (linker 2-8-14 via TBMB; not fully specified (N-terminus, C-terminus)) [06-34-02] | – | 0.16 | 1.09 | –
ACSWPARCLHQDLCA (linker 2-8-14 via TBMB; not fully specified (N-terminus, C-terminus)) [06-34-18 (01 + 05)] | – | 0.07 | 0.56 | Ki [2]: 0.04 nM
